B1: artificial disulphide knockout SOD1 mutant C57A/C146A (enzyme)
chain: not shown
notes: superoxide dismutase-1 (SOD1), C57A/C146A; also called ebselen-free SOD1; source: E. coli BL21 (DE3), purified (diethylaminoethyl cellulose); treated with DMSO
B2: copper chaperone for SOD1 (hCCS), wild-type (natural protein, UniProt O14618 1-274, looked up)
chain: MASDSGNQGTLCTLEFAVQMTCQSCVDAVRKSLQGVAGVQDVEVHLEDQMVLVHTTLPSQEVQALLEGTGRQAVLKGMGSGQLQNLGAAVAILGGPGTVQGVVRFLQLTPERCLIEGTIDGLEPGLHGLHVHQYGDLTNNCNSCGNHFNPDGASHGGPQDSDRHRGDLGNVRADADGRAIFRMEDEQLKVWDVIGRSLIIDEGEDDLGRGGHPLSKITGNSGERLACGIIARSAGLFQNPKQICSCDGLTIWEERGRPIAGKGRKESAQPPAHL
notes: copper chaperone for SOD1 (hCCS), wild type; Desalted into ligand-free, nitrogen-purged buffer

Experiments:
[1] = target: B2; test: SEC; C57A/C146A SOD1 with or without ebselen (25 uM SOD1, 100 uM ebselen, 3 h, 20 C) and hCCS; complex formed with 250 pmol of both SOD1 and hCCS; conditions: both partners purified
[2] = target: the molecule itself; test: as above

Row | binding result [1] | Binder | stoichiometry N [2]
1 | binds | B1 | 
2 |  | B2 | 2

Reference: article PMC5923229, “The cysteine-reactive small molecule ebselen facilitates effective SOD1 maturation” (Nature Communications, 2018)
